Test results as given in the supplement of paper PMC9170038.

Test system: MS2 coat protein
Assay: apparent KD of MS2 coat protein; designed switch direction (-1 OFF switch, 1 ON switch): -1; higher = weaker reporter binding
How it was run: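 Each step of the titration lasted 0.8–1.5 h at the lowest concentration and 10–20 min at the highest. The protein, SNAP-549-labelled MS2 coat protein, went from 0.7 or 1.5 nM doubling to 3 µM over RNA switches transcribed on Illumina chips by stalled E. coli RNA polymerase. Normalised cluster fluorescence was curve-fitted, and the per-design median over clusters is given as apparent KD.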

[1] = input ligand: microRNA oligo, concentration not stated
[2] = Eterna round: R95, input ligand: FMN 200 uM
[3] = Eterna round: R95, input ligand: microRNA oligo, concentration not stated
[4] = Eterna round: R95, input ligand: none

Row | Sequence | apparent KD of MS2 coat protein (input ligand: FMN 200 uM) [nM] | apparent KD of MS2 coat protein (input ligand: none) [nM] | apparent KD of MS2 coat protein [1] [nM] | apparent KD of MS2 coat protein [2] [nM] | apparent KD of MS2 coat protein [3] [nM] | apparent KD of MS2 coat protein [4] [nM]
1 | GCAAGCUUUUGCUCGUCUUACAUGAGGAUCACCCAUGUCGGGUGCUUGCUUGCGUCCGGCGUCUGGGCCGUGGCGGU [-31.9, -55.1 kcal, A 10%] (Eterna round: R97, puzzle: Sensor, turn-off variant 1) | 22.2 | 21.6 | – | – | – | –
2 | CGAUGUGGAGUGAGGAUAUCGUGUUCGAAAGAACGUGAGAAGGCACAUGAGGAUCACCCAUGUGAUCCAUGUCG [Omei Ex4B A8] (Eterna round: R97, puzzle: Brourd's mod of Exclusion 4) | 31.7 | 26.4 | – | – | – | –
3 | CUGUUUUUCGCAGGAUAUGCUCCUCCAUUAUUUGCAGAAGGGCGUUGAACAUGAGGAUCACCCAUGUAUGGAAAUGACUAUUGC [JR_ExcNG1_Sub068] (Eterna round: R96, puzzle: Exclusion NG 1) | 22.1 | 18.2 | 14.9 | – | – | –
4 | AAAAAGGUAGGAUAUACGAAAAAAAAGGGUAGAAAAAAAACACAUGAGGAUCACCCAUGUAGAAGGACCAAAAA [salish99_ex2_r3_043] (puzzle: Exclusion 2) | – | – | – | 97.3 | 26.8 | 26.1
5 | CUCCUCAUGACGCCUAAACACAUGAGGAUCACCCAUGUACAGGCUUUUUGUCGUCUUAUAAUAAAACCGAGGAUACG [Orlaorusti] (Eterna round: R96, puzzle: Sensor v3, turn-off variant 1) | 17.8 | 23.2 | 52.2 | – | – | –
6 | GGAUCGUAUGUCAGGAUAUACCACUGGAUACAGUGGUAGAAGGGACAUGAGGAUCACCCAUGUGUUAUCGAUCC [Fiskers BMX 4 - 55] (puzzle: Brourd's mod of Exclusion 4) | – | – | – | – | 41.5 | –
7 | ACUGUAGAAGGAUAUGCUUCGACUCACAUGAGGAUCACCCAUGUCUUCGUGCAGUCGUCUGCAGAAGGUCUCCAGU [EX5 C.7] (Eterna round: R97, puzzle: Exclusion 5) | 1050 | 956 | – | – | – | –
8 | CCCAGUUAGGAAGGAUAUUGUACAUGAGGAUCACCCAUGUAAUAAAUGAGGAUCUCGGAUGUAUACAAGAAGGUCCGGAUAGGC [Ostracism 10 - Jieux - Exclusion NG 2] (Eterna round: R96, puzzle: Exclusion NG 2) | – | – | 58.5 | – | – | –
9 | UUUAAACAUGAGGAUCACCCAUGUGAGGAUAUACGAAUGCAGACACACACGGAUGCAAGUAGAAGGCACAACGC [Design #11] (Eterna round: R97, puzzle: Exclusion 1) | 29.4 | 25 | – | – | – | –
10 | CUCAUGCCUGAGGAUAUGCUGUACAAAAGUACUGCAGAAGGUGGAACAUGAGGAUCACCCAUGUGGCGAAAGCC [Omei Ex G4] (Eterna round: R97, puzzle: Exclusion 6) | 253 | 66.1 | – | – | – | –
11 | UGAGCAACAGGAUAUAUAUGGCGACCGUGAGGUCGAAGGUUACAUGAGGAUCACCCAUGUAGAAGGGUUGUUCU [Mat - Exclusion 2 - JL Mod - D16] (Eterna round: R97, puzzle: Exclusion 2) | 279 | 102 | – | – | – | –
12 | GGUCAUCAAGUCAGGAUAUCGUCAAAUCAAUCAGGCGAGAAGGGACAUGAGGAUCACCCAUGUCGACUCAUCAC [Ex4 #4] (Eterna round: R97, puzzle: Brourd's mod of Exclusion 4) | 117 | 31.2 | – | – | – | –
13 | GAUGGAGAGCAGGAUAUCUUGGGUAAGCAUCAUAGAGAAGGGCUCACAUGAGGAUCACCCAUGUGGUCCAAGAA [Usbiridi] (puzzle: Exclusion 6) | – | – | – | – | 14.1 | –
14 | UUAAUUAGCAGACUAAUACCUCACAUGAGGAUCACCCAUGUGCAGGAUAUCAGCUCGUUUAGAGCUGAGAAGGGCACUGUCUGC [ExNG3/12-A2] (Eterna round: R96, puzzle: Exclusion NG 3) | 17.9 | 11.3 | 8.72 | – | – | –
15 | AAUGCCAGAGGAUAUACAUGAGGAUCACCCAUGUUAAAUGAUCCUGUGCUAGAUGCACGUAGAAGGCUGUAAAA [EX3 A.8] (Eterna round: R97, puzzle: Exclusion 3) | 15.5 | 12.9 | – | – | – | –
16 | UGGAUAACAGGAUAUACAUGAGGAUCACCCAUGUUUCCGGACGGAGACGAAUCCUAGAGUAGAAGGGUUAUCCC [Eternabot (Original) Solution 17] (Eterna round: R97, puzzle: Exclusion 3) | 388 | 362 | – | – | – | –
17 | CAGGGCAUGCGAGGAUAUAGCAACAUGAGGAUCACCCAUGUAUAAGGGUGUCCUAGGCAUGCGCGCUAGAAGGCGCUGGUUCUC [Onreusve] (Eterna round: R96, puzzle: Exclusion NG 2) | 431 | 75.5 | 18.9 | – | – | –

Row | Sequence | apparent KD of MS2 coat protein (input ligand: FMN 200 uM) [nM] | apparent KD of MS2 coat protein (input ligand: none) [nM] | apparent KD of MS2 coat protein [1] [nM] | apparent KD of MS2 coat protein [2] [nM] | apparent KD of MS2 coat protein [3] [nM] | apparent KD of MS2 coat protein [4] [nM]
18 | GAACUAAAGCAAAGCUUUAGUCGUACAUGAGGAUCACCCAUGUAGGAUAUGGUAGGCAAAGCAUACCAGAAGGACAGAGUGAUC [Mat - Exclusion NG 3 - Mod of JL - D63] (Eterna round: R96, puzzle: Exclusion NG 3) | 211 | 371 | 134 | – | – | –
19 | UCUUGUUGUCCUUGAUUUUACAUGAGGAUCACCCAUGUUAUUUUGAUUAUGAUGUGUAAGUUUGUUGCUCGUUUUAU [JR_STOV1_Sub068] (Eterna round: R97, puzzle: Sensor, turn-off variant 1) | 49.8 | 54.3 | – | – | – | –
20 | UGAUCACAUGAGGAUCACCCAUGUCAGGAUAUCUACAUUGAAGCUUCGGCUUCAAUGUAGAGAAGGGACAUAAU [E1/3-B1] (Eterna round: R97, puzzle: Exclusion 1) | 115 | 175 | – | – | – | –
21 | GGGCGUGAAGGAUAUACAUGAGGAUCACCCAUGUGGGAGGAGAAUGGUGAGGAGGCUGGUAGAAGGUCAGGAGG [JR_Exclusion3_Sub009] (puzzle: Exclusion 3) | – | – | – | – | 37.5 | –
22 | CGUGCGUAUGUGAGGAUAUGCUGGUCCUUGGAUCGGCAGAAGGUACAUGAGGAUCACCCAUGUGGUGUCGUUCU [salish99_Bmod_ex4_106] (puzzle: Brourd's mod of Exclusion 4) | – | – | – | – | 171 | –
23 | ACGAUGAUCGAAAAGUGUAAACUGACAUGAGGAUCACCCAUGUAGGAUAUGGCUACGAAAAGUAGUCAGAAGGGCAUGUCAUCA [Omei Exc(NG) 3 Av11] (Eterna round: R96, puzzle: Exclusion NG 3) | 51.3 | 47.9 | 34.6 | – | – | –
24 | UCGCUCCGUGUAGGAUAUCGCCGUUCUAUUCGGCGAGAAGGACAUGAGGAUCACCCAUGUAUGUUAUUAUCACGCGUGGCGCGC [Design 56] (Eterna round: R96, puzzle: Exclusion NG 1) | 18.8 | 15.4 | 8.79 | – | – | –
25 | UAUAACAAGCCAGAUCCUAACAUGAGGAUCACCCAUGUGCUCGUCUGAUUUUGUACUAUCAUGAGAGUGAUAGUACU [Level Boss var2-03] (puzzle: Sensor v3, turn-off variant 1) | – | – | – | 181 | 488 | 192
26 | CGUGAGUCAGGAUAUGCCUGUACUAACUUGAGGAUCACCCAAGUGUCCUCCCGGUGCAAUGCAGAAGGGACGACGA [Oninlein] (Eterna round: R97, puzzle: Exclusion 5) | 765 | 74.2 | – | – | – | –
27 | UUGUUAUAUGUAGGAUAUGCGUGUUAUUAUUAUGCAGAAGGACAUGAGGAUCACCCAUGUGUAUUAUUAUUAUAUAUUAUAUAU [Title] (Eterna round: R96, puzzle: Exclusion NG 1) | – | – | 15.4 | – | – | –
28 | CCGGCUGCUGUGAGGAUAUGCCUGUGGGUGCGUGGGUAGAAGGCACAUGAGGAUCACCCAUGUCCUGCGGUCCC [salish99_bmx4_r4_113] (Eterna round: R97, puzzle: Brourd's mod of Exclusion 4) | 63.9 | 66 | – | – | – | –
29 | AAAGUGUGAGGAUAUCCUGGGCUGGGCCGGGAGGUUCGGUUGGAGAAGGCACAUGAGGAUCACCCAUGUAACGG [Excls4-IX] (puzzle: Exclusion 4) | – | – | – | – | 57.1 | –
30 | GGUUGGCGAGGAUAUACAUGAGGAUCACCCAUGUGAGAGAAAAAAGUGAGGAAGAACAGUAGAAGGCGCUGACG [salish99_ex3_r3_036] (puzzle: Exclusion 3) | – | – | – | 162 | 74.2 | 106
31 | AAUCCACAUGAGGAUCACCCAUGUGAGGAUAUGAUACUAUGUACUUCGGUACAUAGUAUCAGAAGGCACAUAAA [Ex1-3: 51] (Eterna round: R96, puzzle: Exclusion 1) | 153 | 27.8 | 25.8 | – | – | –
32 | AAAAAGUGAGGAUAUGCAUAAGGACCCGGGAGGGAAAUAAAACAUGAGGAUCACCCAUGUAGAAGGCGCAAAAA [Exclss2-II] (puzzle: Exclusion 2) | – | – | – | 17.2 | 16 | 15.7
33 | GGGCCCGGAGGAUAUACAAUCCCGGGCCGAAAGGUUUGGGUACAUGAGGAUCACCCAUGUAGAAGGCCGGGCCC [-40.9, -38.2 kcal A 24%, 5b bis,0] (Eterna round: R97, puzzle: Exclusion 2) | 29.1 | 17.9 | – | – | – | –
34 | AGGUGUUUCGUAGGAUAUGAGGAUCACCCAUAGAAGGAUAUCGAAAGAGAAGGUCUGAGGAUUACCCAGAAGGACGGGACGUCA [pwkr exNG2 2xF5 2xFMN.10] (Eterna round: R96, puzzle: Exclusion NG 2) | 570 | 145 | 103 | – | – | –
